Experiment: soluble on expression in E. coli; label from the status in PepcDB or PDB records

Sequence | soluble on expression in E. coli
MGSDKIHHHHHHMAISRLLVEKFRNLTAVDLDFDPCFNFLIGNNGSGKTSLLEAIFYLGHGRSFKSAVTNRIISYDEPHFTLFGQIQESQHQWSIGLQKLRQGNTLVKINGEDGNKISDLAHLLPMQLITPEGLTLLNGGPSYRRAFLDWGLFHHQTSFYSAWSNLNRLLKQRNAALAQNQPYSAIKIWDVELAKLAHQVSEWRAEYAEALSPEIEQTCQLFLPELEINVSFHQGWEKNADYYEILQQNFERDRALNYTFSGPQKADFRFKAQGLPVEDVLSRGQLKLLMCALRLAQGEHLMKEKQRHCIFLIDDFASELDQYKRALLAERLQQSGSQVFVTAITQRQLKEMQVENKKMFSVHNGIINALN | not soluble
MSLAEAVAQGAFGKVISVRGSGARVGLLPSSRLVPSAVRATVGRFVSIRTASSTIIAIITEVSSENLAETDEHIAVASVDLLGEILPGPLRPKFQRGVTNYPTIGDSVDLISSDDLRIVYEPTGSDQIDVGTLQQDPSVIAYVDIEEMLSKHFAVLGSTGVGKSTGVSLLLNEILKSRPALRIFLLDVHNEYGRSFGDKALVLNPRNLKLPFWLFNFEEIVDVLFAGRPGVPEELDILAEVIPVAKGLYVQYTSTDRLGLKRVDPKSIGYTADTPVPYRLVDLISLIDERMGKLENRSSRIIYHKLISRIETVRNDPRYAFMFDNANVGGDTMADVISHLFRLPANGKPMTIMQLAGFPAEVVDSVVSVLCRMAFDFGLWSDGVSPLLFVCEEAHRYAAADRAIGFGPTRKAVSRIAKEGRKYGVYLGLVTQRPAELDATILSQCNTLFAMRLANDRDQSLLRSAVSDAAANLLSFVPSLGTREVLAFGEGVALPTRLRFKEVPAHQLPRSEAAISTVPSAAAGNDMHFVSAVLERWRGATSHRDVPNDPGIAERPLARTLDAPMLQPSLGLDPDRFSLLKKPLREGHHHHHH | soluble
MGHHHHHHSHMKNLINWFEIPVTDMARAIAFYEQVMQISLRRETMDGADLAVFPYAEPGPGGALIKQDDVAPVAQGVVIYLHTADLLASIERVVLAGGKCVLEPMVPGDDIGTIALFIDSEGNRIGLHQPA | soluble
MTDFDIDTSAANYADELALLGVTGAMSYAPKGTQMPETIAPLNPPFVDFGWLSDGGITESQNEERNDWTPFQSTNPIRGQVTKQDFQFKTVVWSISGLANAMYYGVPESDMRFDQETGVTTFEQGKELPPDFKFGLVVDIVDGGKARRHCMPNVSVVERGDIVYSKDDLVGYEMTFRASYDPVAGYAVRRMFKEGWKPGHAGTTLADENKDASLGDWSNTLDESEVRKQSKTVTLPKGATGGTFTVSINGKASAAINHDATGTAMKLVLNKVDGGESAKVTGRAGGPYTITGVEGEITADGTNLTGSDTQDISIN | not soluble
MGSDKIHHHHHHLIYIYYPELRLFNGDEITQKFVKGEVVEAHEVLRLKHSIATYRSRLCDISWFMRCLNEPIARQANQEDSCTGRFWEGRFKSQALLDEAAVLACMAYVDLNPIRAKMASTPEQSDHTSIQLRIRAALKGEQPNNLLPFIGNERQFQPKGITFALKDYLELVDDTGRIIRNDKRGSVSANSAKLLTRLNISQENWLKLTTEFGKLFHGPVGTLQELTSYCEHLEKRRRHFASCCQHLKAG | not soluble
MGSDKIHHHHHHMRSPVPRVAAIHDLSGFGRTSLTVAIPVLSAMGIQVCPMPTAMLSTHTSGFKGFSFIDLTAEMRRFFDHWKSLNIRFDAIYSGFLGSPDQVAIVAQCIDMFRTPDGFAVVDPVLGDNGELEPTMDMEMVHRMRWLVSKADIITPNFTEAALLLDEPYREHIDQPTLKDWLRRLTAMGPHVAVVTSVPVEGSRTTTSVVAYNRPHDRFWKVDCQYIPAHYPGTGDTFASVLTGSILQGDSLPIAIERAVQFVTMGIRATFGHNSPSREGILLERVLDTLRAPVTMSSYELLEE | not soluble
MKRYISIKGIGTYLPKRKVDSLEIDQMLDVPEGWTLKKAGVKTRYFVDGETSSYMGAEAAKKAVEDAKLTWDDIDCIICGSGTIQQAIPSTASLIQEQLGLQHSGIPCFDINSTCLSFITALDTISYAIECGRYKNVVIISSEISSVGLNWGQNESSILFGDGAAAVVITKGDHSSSIIASHMETYSSGAHLSEIRGGGTMIHPREYSEERKEDFLFDMNGRAIFKLSSKYLMKFIDKLLMDTGYSLADIDLIVPHQASGPAMRLIRKKLGVDEERFMTIFEDYGNMISASIPVALFEAIKQKKVQRGNKILLLGTSAGLSIGGILLEY | not soluble
MGSDKIHHHHHHTYTPGTMGEGVVYYLPKTEIELQVTATKVVYTPGEFCQYADRYLRLTGISSQPEEHWEINSIKVNSIGIPDPDNAYAVKLKDKSAASQVELTPEGIIKAINTTSPIEKAPVTKVADTVKKRIDPRSFMTEEILIAGSTAKMAELVAKEIYNIRESKNSLTRGQADYMPKDGAALKLMLDNLDEQEQAMMQMFAGTTDRIEKSFTIRIKPEADMKEKVAFRFSKKLGMLDADNLSGEPYYISIVNQETLPPMDPKGKEKKKTDGVIYNIPGKAQVTVFTPNKRYFDGELPVTQFGTTECLIDNLFNKKVNTRVIFNPNTGGIVKIDKD | not soluble
MMSIFSVQTGSLVGTVHRYVKQPRQSWAYPIKQKSQTGTDNTKSALTLEKFTKPLTRKFSHDTICRKAPFVGVELQKPSATLTIMGKVHRQRQE | not soluble
MSSHESLFDYEATLQACARGEKQALQRLYLQESARLLGVAQRLVRDSALAEDIVHDAFLKIWTHAASFDASRGSARGWIFSVTRHLALNTLRNTAREVRVEDDGSDDHHEQATLEGWQETGDAFDWRVNPGRMISCMEQLEPVRRNCIFHAYVDGYSHQEIAQKIGAPLGTVKAWIKRSLTALRECMG | not soluble
MVGGLTHVDEKGVKMVEIGYKDVVFRKAVAKGRIKLKPETVKLIKEGKIEKGNVLATAQIAGILAVKRTPELIPLCHPIPITGVDITFDFGEDYIEVTCEVRAYYKTGVEMEALTGVTVALLAIWDMVKAVEKDEKGQYPYTRIENVHVVEKVKTHNSQ | soluble
MKKALLYRRGGLGDTLLTFPILEILKRRGYETIAVGNTDYFSIAKEVGYADGVYSFIPEEEFDLKVIISFEGNVKPFPEKREWIVKHYLNSLGLGEEFSTKLPIKPVQDSPLKGKVVIHPSSGSKKKNPPLEVFLKLKDFLEERGKEVVFLLGEAEEHLREVLSPHFLSLSPLEIAKHLKTAGFYVGLDSGISHLASYLGVPSFIVYGPTDPLVWRPIGDKVFQISLNLDCSPCFPNVCEERMCLDTEEVLRKTKETLLRYWNSL | not soluble
MQSITPPLIAVIGSDASGKSTVCEHLITVVEKYGAAERVHLGKQAGNVGRAVTKLPLMGKSLHKTIERNQVKTAKKLPGPVPALVITAFVARRLLRFRHMLACRRRGLIVLTDRYPQDQIPGAYDGTVFPPNVEGGRFVSWLASQERKAFHWMASHKPDLVIKLNVDLEVACARKPDHKRESLARKIAITPQLTFGGAQLVDIDANQPLEQVLVDAEKAITDFMTARGYH | not soluble
MEDEVFVFTPKGDLFKLAKGATVLDFAFHIHSKLGCKCIGAKVNGKNVQLKQKLNSGDQVEIMTSNTQTPKQDWLEHHHHHH | not soluble
MGSDKIHHHHHHRFMRIMMTSVLNNTKTQKVKFWLLKNYLSPKFKETIPKLAEFYKFEFELVEYKWPKWLHKQTEKQRVMWGYKILFLDVLFPLNVDKIIFVDADQVVRADLQELMDFNLNGAPYGYVPFCESRTEMDGFRFWKSGYWKNHLMGRKYHISALYVVDLKAFREFSAGDRLRGRYDSLSADPNSLSNLDQDLPNNMLHEVPIKSLPQEWLWCETWCDDGSKEKAKTIDLCNNPLTKEPKLNSAKRIIKEWTEYDSEISKVLNSADINTPSPSVDRDEL | not soluble
MGSDKIHHHHHHMPWLRFCDRDRSVHMLVAMLDLTREKAEQVMRRGPWLASMTEPFRTELLRHAHLQKFAPDQVVYRHGDAVGGMYGLVAGSLTINSAPPDAASRLIHLGMPGAWTGEGPFLTGQPRRVELRALGGAWMMHVPLDALEQMMARDPGVSRAIAMNTVFTVDVLLRIIHDLQKRAVGRRIASVLQRASWVGDMPIPLSQTDLGIMANASRQQVNTAMQRFARAGWVSYTYRSVTVSNSQALRRFSEGDGSEW | not soluble
MGSDKIHHHHHHMQDKNFDKLAQKFAKNIYGTPKGEIRAAVLWRDLAPALAQFGDKKLRILDAGGGFGYFSQKLARLGHEVVLCDISAEMLAQAKEQIDASDTPLAIRLVHAPIQALSITEHGMFDLILCHAVVEWLADAKTTMEGLLTMLKPNGLFSLMFYNKEAMRFHALVSGNFDYVAADLKVKKKVRLTPTHPLYIHEVKLWFAQWQMALLKESGVRVIHDYLKKQQAADFDYQKLLSMELEYSQREPYISLGRYVHFLGQSTATHSE | not soluble
QTQTVAIIGMGSRGLSILEQLIGMSRHADQQPLQIEVFDPQPPGSGLHSAQQPDYLMLNTMAGQLSAFSSAFPACEPAGWTFLQWCGAQDVRLDERGHVSTNGLGRPVAFGDFVPRALLGRYLQHSYRFLLQQCPAHVQVRHYAERVIKCRSRSDAPGFRLRSLTREMNVDALFLTVGHASSATELQDVGATVAIEGLGLTAMDTLASLTQGRGGRYVRDAGFAGWRYLPSGREPRVFMYSRSGLPFHARPHWYPTRHAALPRLFFTAVAIGDLRKQNGGGQLDFQADVLPLIKDEMRAVFYQTKVRLDAPRQLEAVQRTLREAVARPALFARLAEQWGEFDPEQWLTTQRWTGEAGTYGQWFVEWIKRDLALSRLGTAHSPIRQALEVWRDCRDLLRLVADRNGLTESSTLAFYDTWAGLGNRLVGGPQKERHEDLLALIDAGVVTVLAPMSDAQQADSRFDSVMAARVAPSGLSGNRSALLDDLREQGL | not soluble
MISPGEAVLMDGGTTTLEVARQLAGKQLQVVTNSLPIANLLVNQPQIDLMLIGGFLFPKTGVALGKTAVESLKSVHVRRLIISVGGITEDGLYNSNMLLVETEQQMFEAAEEVIVVTDSTKFGHSALAYLCPLDRVDHIVVDDGITEEWKDVIHKAGIELTVVET | not soluble
MASPSKAVIVPGNGGGDVTTHGWYGWVKKELEKIPGFQCLAKNMPDPITARESIWLPFMETELHCDEKTIIIGHSSGAIAAMRYAETHRVYAIVLVSAYTSDLGDENERASGYFTRPWQWEKIKANCPYIVQFGSTDDPFLPWKEQQEVADRLETKLHKFTDCGHFQNTEFHELITVVKSLLKVPALEHHHHHH | soluble
IGIVNDMPLAVEALRRALAFEPQHQIVWVASNGAEAVTQCAADTPDVVLMDLLMPVMDGVEATRRIMAESPCAIVIVTVDIEQNVHRVFEAMGYGALDAVNTPALGIGNPQTAAAPLLRKIQNVGWLIGQRDNRGKVQVVPPKAGGARQRLVAIGASAGGPASLAVLLKQLPASFNAAVVLVQHVDEVFAAGMAEWLASESKLPVRLARDGEPPIPGQILLAGTNNHIRLLRNGSLVYTAEPRSFVYRPSIDVFFESVANYWRGDAVGVLLTGMGRDGAQGLKQMRERGFLTIAQDQASCAVYGMPKAAAAIDAAVQILSLEKIA | not soluble
LFSCIISSIETTKYVGISGVNKSVIDYTPAADMELVTIGESLSLKHPPIDATGCPSPATITRAAVDLLKIPIMTIDAGSYVKPKIPYISVDQRPTGDIQKGLGMDNSKELLNLGKIIGNNNIYDSLVIGESVPGGTTTALGVLLGLGYDARDKISSGSVENPKDLKLSVVENGLKTCKSEDVFDVLNAVGDKMMPVVAGMTISAVSKGK | not soluble
